{
  "source": "patent US20240209100A1",
  "assay_in_all_cases": "cell-based or functional assay",
  "key": {"[1]": {"target": "T1, IL-18 receptor (IL-18Rα/IL-18Rβ) overexpressed on HEK-Blue IL-18 cells (Homo sapiens (Human)) (UniProt Q13478)", "T1 sequence 1": "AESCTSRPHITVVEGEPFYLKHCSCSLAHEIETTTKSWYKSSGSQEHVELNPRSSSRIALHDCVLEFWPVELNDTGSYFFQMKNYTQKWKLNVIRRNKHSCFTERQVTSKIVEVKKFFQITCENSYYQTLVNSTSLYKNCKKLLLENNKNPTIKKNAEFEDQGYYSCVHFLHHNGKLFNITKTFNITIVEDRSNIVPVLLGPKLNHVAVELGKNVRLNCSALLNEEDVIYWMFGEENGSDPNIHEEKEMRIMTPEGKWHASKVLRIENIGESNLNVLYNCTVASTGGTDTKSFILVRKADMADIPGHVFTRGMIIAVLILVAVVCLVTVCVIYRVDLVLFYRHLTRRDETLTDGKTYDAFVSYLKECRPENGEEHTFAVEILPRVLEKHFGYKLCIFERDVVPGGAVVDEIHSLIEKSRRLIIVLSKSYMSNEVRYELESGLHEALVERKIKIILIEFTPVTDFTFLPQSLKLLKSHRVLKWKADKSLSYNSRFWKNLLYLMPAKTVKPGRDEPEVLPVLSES", "T1 sequence 2": "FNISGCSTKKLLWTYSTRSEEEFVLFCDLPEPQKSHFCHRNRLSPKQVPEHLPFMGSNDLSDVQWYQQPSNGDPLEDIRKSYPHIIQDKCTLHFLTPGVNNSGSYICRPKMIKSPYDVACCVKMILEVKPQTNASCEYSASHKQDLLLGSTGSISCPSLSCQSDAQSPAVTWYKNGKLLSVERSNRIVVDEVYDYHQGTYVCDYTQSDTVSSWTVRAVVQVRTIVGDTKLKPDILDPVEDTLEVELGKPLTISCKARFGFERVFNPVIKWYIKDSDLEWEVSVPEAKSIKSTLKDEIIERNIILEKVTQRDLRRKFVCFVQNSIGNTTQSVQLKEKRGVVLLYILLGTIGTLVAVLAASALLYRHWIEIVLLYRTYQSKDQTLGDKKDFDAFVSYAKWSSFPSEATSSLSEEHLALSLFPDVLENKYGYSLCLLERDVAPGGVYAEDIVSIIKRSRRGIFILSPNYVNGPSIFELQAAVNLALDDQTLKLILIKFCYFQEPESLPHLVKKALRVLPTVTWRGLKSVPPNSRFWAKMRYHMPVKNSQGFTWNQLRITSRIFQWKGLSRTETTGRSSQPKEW"}, "[2]": {"target": "T1, IL-18 receptor (IL-18Rα/IL-18Rβ) overexpressed on HEK-Blue IL-18 cells (Homo sapiens (Human))", "remark": "listed apart in the source"}, "[3]": {"target": "T1, IL-18 receptor (IL-18Rα/IL-18Rβ) overexpressed on HEK-Blue IL-18 cells (Homo sapiens (Human))", "remark": "listed apart in the source"}, "[4]": {"target": "T1, IL-18 receptor (IL-18Rα/IL-18Rβ) overexpressed on HEK-Blue IL-18 cells (Homo sapiens (Human))", "remark": "listed apart in the source"}, "[5]": {"target": "T1, IL-18 receptor (IL-18Rα/IL-18Rβ) overexpressed on HEK-Blue IL-18 cells (Homo sapiens (Human))", "remark": "listed apart in the source"}, "[6]": {"target": "T2, IL-18 receptor (IL-18Rα/IL-18Rβ) on human PBMCs (human) (UniProt Q13478)", "T2 sequence 1": "T1 sequence 1", "T2 sequence 2": "T1 sequence 2"}},
  "note": "Like-named read-outs stand apart in the source and are kept apart here.",
  "data": [
    {"substance": "Human IL-18 (from UniProt Q14116 37-193) (ligand)", "values": [
      {"measurement": "HEK-Blue IL-18: Abs405", "setting": "[1]", "result": 3.1, "unit": "Abs"},
      {"measurement": "HEK-Blue IL-18: Fold over background", "setting": "[1]", "result": 13.6, "unit": "fold"},
      {"measurement": "HEK-Blue IL-18: Abs405", "setting": "[2]", "result": 3.08, "unit": "Abs"},
      {"measurement": "HEK-Blue IL-18: Fold over background", "setting": "[2]", "result": 26, "unit": "fold"},
      {"measurement": "HEK-Blue IL-18: Abs 405 at 100 nM", "setting": "[3]", "result": 3, "unit": "Abs"},
      {"measurement": "HEK-Blue IL-18: Fold over background", "setting": "[3]", "result": 13.2, "unit": "fold"},
      {"measurement": "HEK-Blue IL-18: Abs 405 at 100 nM", "setting": "[4]", "result": 2.6, "unit": "Abs"},
      {"measurement": "HEK-Blue IL-18: Fold over background", "setting": "[4]", "result": 14.4, "unit": "fold"},
      {"measurement": "HEK-Blue IL-18: Abs 405 (Ave of 2)", "setting": "[5]", "result": 2.6, "unit": "Abs"},
      {"measurement": "HEK-Blue IL-18: Abs405 (Emax), Average (hu IL-18)", "setting": "[5]", "result": 2.72, "unit": "Abs"},
      {"measurement": "HEK-Blue IL-18: EC50 (M), Average (hu IL-18)", "setting": "[5]", "result": "7.14e-14", "unit": "M"},
      {"measurement": "HEK-Blue IL-18: Emax (Abs at 630 nm), Human IL-18 (1 ng/ml) (Abs at 630 nm)", "setting": "[5]", "result": 3.25},
      {"measurement": "HEK-Blue IL-18: Fold over background", "setting": "[5]", "result": 22, "unit": "fold"},
      {"measurement": "PBMC IFNγ induction (24 h, with IL-12): EC50, Average", "setting": "[6]", "result": 6.8},
      {"measurement": "PBMC IFNγ induction (24 h, with IL-12): EC50, donor 1", "setting": "[6]", "result": 1.9},
      {"measurement": "PBMC IFNγ induction (24 h, with IL-12): EC50, donor 2", "setting": "[6]", "result": 1.7},
      {"measurement": "PBMC IFNγ induction (24 h, with IL-12): EC50, donor 3", "setting": "[6]", "result": 1.4},
      {"measurement": "PBMC IFNγ induction (24 h, with IL-12): EC50, donor 4", "setting": "[6]", "result": 4.7},
      {"measurement": "PBMC IFNγ induction (24 h, with IL-12): EC50, donor 5", "setting": "[6]", "result": 1.9},
      {"measurement": "PBMC IFNγ induction (24 h, with IL-12): EC50, donor 6", "setting": "[6]", "result": 29.4},
      {"measurement": "PBMC: calculated maximum induction of IFNγ after 24 hours, donor 1", "setting": "[6]", "result": 42000},
      {"measurement": "PBMC: calculated maximum induction of IFNγ after 24 hours, donor 2", "setting": "[6]", "result": 5300},
      {"measurement": "PBMC: calculated maximum induction of IFNγ after 24 hours, donor 3", "setting": "[6]", "result": 89000},
      {"measurement": "PBMC: calculated maximum induction of IFNγ after 24 hours, donor 4", "setting": "[6]", "result": 69000},
      {"measurement": "PBMC: calculated maximum induction of IFNγ after 24 hours, donor 5", "setting": "[6]", "result": 150000},
      {"measurement": "PBMC: calculated maximum induction of IFNγ after 24 hours, donor 6", "setting": "[6]", "result": 28000}
    ]}
  ]
}
